From article PMC8420576 (The EMBO Journal, 2021) come the findings set out here.

The test deals with T1, SARS-CoV-2 RBD, B.1.427/B.1.429/Epsilon/Californian variant (L452R) (SARS-CoV-2, Epsilon/Californian …, L452R).
T1 construct: also called Epsilon/Californian RBD mutant; Californian L452R mutation
Kind of test: BLI. The note with it: both partners purified.

B1: VHH antibody Re5D06, labeled with two PEG11-biotins (VHH)
VHH: QVQLVESGGGLVQPGGSLRLSCAASGITLDYYAIGWFRQAPGKEREGVSRIRSSDGSTNYADSVKGRFTMSRDNAKNTVYLQMNSLKPEDTAVYYCAYGPLTKYGSSWYWPYEYDYWGQGTQVTVSS
notes: also called Re5D06 (immobilized on BLI sensors)
Consider B1, for which the Kd (in general, the concentration at which binding is half-saturated) is approximately 0.4 nM.
